Values of other authors in patent US5972698A, “Tryptase inhibitor” (Novartis Corporation, priority 1993, dated 1999).

B1: mucus-proteinaseinhibitor: naturally occurring antiproteinase (protein, UniProt P03973 26-132, looked up)
Antileukoproteinase: SGKSFKAGVCPPKKSAQCLRYKKPECQSDWQCPGKKRCCPDTCGIKCLDPVDTPNPTRRKPGKCPVTYGQCLMLNPPNFCEMDGQCKRDLKCCMGMCGKSCVSPVKA
B2: ovomucoid inhibitor: proteinase inhibitor derived from non-human species (protein, UniProt P01005 25-210, looked up)
Ovomucoid: AEVDCSRFPNATDKEGKDVLVCNKDLRPICGTDGVTYTNDCLLCAYSIEFGTNISKEHDGECKETVPMNCSSYANTTSEDGKVMVLCNRAFNPVCGTDGVTYDNECLLCAHKVEQGASVDKRHDGGCRKELAAVSVDCSEYPKPDCTAEDRPLCGSDNKTYGNKCNFCNAVVESNGTLTLSHFGKC
B3: soybean trypsin inhibitor: printed as 'soybean and lima bean trypsin inhibitor' (protein, UniProt P01070 25-205, looked up)
Trypsin inhibitor A: DFVLDNEGNPLENGGTYYILSDITAFGGIRAAPTGNERCPLTVVQSRNELDKGIGTIISSPYRIRFIAEGHPLSLKFDSFAVIMLCVGIPTEWSVVEDLPEGPAVKIGENKDAMDGWFRLERVSDDEFNNYKLVFCPQQAEDDKCGDIGISIDHDDGTRRLVVSKNKPLVVQFQKLDKESL

System: Human tryptase

inhibition of tryptase (literature)	Molecule
not inhibited	B1
not affected	B2
not affected	B3
